Among the data in patent US20240018254A1 are Kd, koff and kon values, retold here.

The test concerns the target FcγRIIIa-bio (UniProt P08637). Description: BLI (Fortebio), FcγRIIIa-bio on SA sensor, antibody 31.3-500 nM, 1:1 fit. A general note: Biolayer interferometry detects binding as a change in optical thickness at a sensor tip.
Chain of UniProt P08637 (P08637 17-208 limits assumed): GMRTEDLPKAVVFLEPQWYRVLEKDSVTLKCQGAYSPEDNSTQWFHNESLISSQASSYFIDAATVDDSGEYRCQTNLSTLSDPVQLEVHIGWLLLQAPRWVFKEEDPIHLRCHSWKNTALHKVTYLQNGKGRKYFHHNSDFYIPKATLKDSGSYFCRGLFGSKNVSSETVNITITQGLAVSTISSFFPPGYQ

As for MEDI9447 (Oleclumab) (antibody), the equilibrium dissociation constant (Kd) – broadly, the constant that tells how readily two partners part at equilibrium – stood at 141 nM; the koff – broadly, the first-order rate constant of dissociation – amounted to 0.0342 s⁻¹; the kon – broadly, a measure of how fast the partners come together – was 243000 M⁻¹ s⁻¹.
